The values below come from patent US20250163127A1 (published 2025).

The target in test [1] is T1, human PD-1 (human, UniProt Q15116). The test can be described thus: flow cytometry, CHO/PD-1 cells, 100 nM, anti-FLAG-PE.
For another test, the target named is human CTLA-4 (human). The test can be described thus: flow cytometry, CHO/CTLA-4 cells, 100 nM, anti-Flag. A general note: Flow cytometry measures light scatter and fluorescence of single cells or particles in a stream.
Test [2] deals with T2, human CD28 (human, UniProt P10747). The test can be described thus: flow cytometry, Jurkat cells (endogenous CD28), 100 nM, anti-Flag.
For test [3], the target named is T1, human PD-1. The test can be described thus: flow cytometry, CHO/PD-1 cells, 100 nM, anti-Flag.
A further test addresses T3, human CD80 (human).
T3 chain: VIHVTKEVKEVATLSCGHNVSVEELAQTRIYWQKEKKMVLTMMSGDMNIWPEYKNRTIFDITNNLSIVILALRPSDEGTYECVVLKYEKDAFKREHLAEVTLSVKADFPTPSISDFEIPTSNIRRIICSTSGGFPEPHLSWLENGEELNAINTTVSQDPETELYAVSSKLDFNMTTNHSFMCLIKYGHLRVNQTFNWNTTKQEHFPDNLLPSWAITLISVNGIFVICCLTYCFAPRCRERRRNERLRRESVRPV
The test can be described thus: cell-based or functional assay.

The target in the next test is PD-1 (human, UniProt Q15116). Nature of the test: cell-based or functional assay.
Test [4] concerns the target T2, human CD28. Nature of the test: flow cytometry, Expi-CD28 cells.
Another test deals with T4, human TIGIT (human, UniProt Q495A1).
T4 sequence: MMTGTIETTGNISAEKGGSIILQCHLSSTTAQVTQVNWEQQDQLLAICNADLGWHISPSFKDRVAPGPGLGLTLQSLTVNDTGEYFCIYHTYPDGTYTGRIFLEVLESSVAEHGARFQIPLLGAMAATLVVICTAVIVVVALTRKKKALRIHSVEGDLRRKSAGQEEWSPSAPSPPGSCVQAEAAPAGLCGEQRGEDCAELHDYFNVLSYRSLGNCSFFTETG
The test can be described thus: flow cytometry, Jurkat/IL-2/TIGIT cells.

For the next test, the target named is T5, TIGIT (human, UniProt Q495A1).
T5 sequence: T4 sequence
The test can be described thus: cell-based or functional assay.

The target of the next test is CD28 (human, UniProt P10747). Nature of the test: cell-based or functional assay.
The target in test [5] is T1, human PD-1. Nature of the test: flow cytometry, Jurkat/IL-2/PD-1 cells.
Another test deals with T6, CD80 (human).
T6 chain: T3 chain
Nature of the test: flow cytometry, CHO-CD80 cells.

Numbering of substitutions follows the chain as printed.

Sequence of human CTLA-4 (human) (chain, as listed by the source): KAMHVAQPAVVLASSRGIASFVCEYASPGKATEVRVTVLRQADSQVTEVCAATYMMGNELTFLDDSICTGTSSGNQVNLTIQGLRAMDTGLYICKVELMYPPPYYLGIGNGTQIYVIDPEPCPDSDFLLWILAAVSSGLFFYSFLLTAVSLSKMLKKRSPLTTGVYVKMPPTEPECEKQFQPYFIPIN

B1: PD-L2 1417-IL16 (other)
chain: LFTVTVPKELYIIEQGSNVTLECNFDTGSHVNLGAITASLQKVENDASPHRERATLLEEQLPLGRALFHIPQVQVRDEGQYRCIIIYGDAWDYKYLTLKVKAGSGGSGGGGSGGGGSSAASASAASDVSVESTAEATVCTVTLEKMSAGLGFSLEGGKGSLHGDKPLTINRIFKGAASEQSETVQPGDEILQLGGTAMQGLTRFEAWNIIKALPDGPVTIVIRRKSLQSKETTAAGDSDYKDDDDKHHHHHH
For the molecule B1, the MFI with human PD-1 [1] stood at 19900.

B2: PD-L2 1417-CD80 2616 (other)
chain: LFTVTVPKELYIIEQGSNVTLECNFDTGSHVNLGAITASLQKVENDASPHRERATLLEEQLPLGRALFHIPQVQVRDEGQYRCIIIYGDAWDYKYLTLKVKAGSGGSGGGGSGGGGSVIHVTKEVKEVATLSCGHNVSLEELAQTRIYWQKGKKMVLTMMSGDMNIWPEYKNRTIFDITNNLSIVILDPRPSDEGTYECVVLKYEKDAFKREHLAEVDYKDDDDKHHHHHH
As for B2, the MFI with human CTLA-4 was 79.3; with human CD28 [2], 89.2; in the test with human PD-1 [3], 20000.

B3: PD-L2 1417-CD80 2617 (other)
chain: B2 chain with L139V, K171E
Consider B3, for which the MFI with human CTLA-4 worked out at 85; with human CD28 [2] it was 94.2; with human PD-1 [3] it was 13700.

B4: PD-L1 303-CTLA-4 3037-Fc (SEQ ID NO 3523) (Fc fusion)
chain: FTVTVPKDLYVVEYGSNMTIECKFPVEKQLDLAALIVYWEMEGKDIIQFVHGEEDQKAQHSSYRQRARLLKDQLSLGNAALQITDVKLQDAGVYRCMISYGGGADYKRITVKVNAGSGGSGGGGSGGGGSKAMHVAQPAVVLASSRGIASFVCEYASPWKATEVRVTVLRQADSQVTEVCAATYMMGSELTFPDDSICTGTSSGNQVNLTIRGLRAMDTGLYICKVEQMYPPPYLLGIGNGTQIYVIDPEPCPDSDGGGGSGSGGGGSEPKSSDKTHTCPPCPAPEAEGAPSVFLFPPKPKDTLMISRTPEVTCVVVDVSHEDPEVKFNWYVDGVEVHNAKTKPREEQYNSTYRVVSVLTVLHQDWLNGKEYKCKVSNKALPAPIEKTISKAKGQPREPQVYTLPPSRDELTKNQVSLTCLVKGFYPSDIAVEWESNGQPENNYKTTPPVLDSDGSFFLYSKLTVDKSRWQQGNVFSCSVMHEALHNHYTQKSLSLSPG
With B4, the “% CD25 Hi FoxP3 +” value in the test with human CD80 and with PD-1 was 44.2 % at 100 nM throughout.

B5: CD80 2616-PD-L2 1417 (other)
chain: VIHVTKEVKEVATLSCGHNVSLEELAQTRIYWQKGKKMVLTMMSGDMNIWPEYKNRTIFDITNNLSIVILDPRPSDEGTYECVVLKYEKDAFKREHLAEVGSGGSGGGGSGGGGSLFTVTVPKELYIIEQGSNVTLECNFDTGSHVNLGAITASLQKVENDASPHRERATLLEEQLPLGRALFHIPQVQVRDEGQYRCIIIYGDAWDYKYLTLKVKADYKDDDDKHHHHHH
As to B5, the MFI came out at 82.5 in the test with human CTLA-4, 92.2 in the test with human CD28 [2] and 1520 with human PD-1 [3].

B6: CD80 2617-PD-L2 1417 (other)
chain: B5 chain with L22V, K54E
For the molecule B6, the results for the MFI with human CTLA-4, with human CD28 [2] and with human PD-1 [3] were 75.5, 110 and 1390, respectively.

B7: CD155 665-ICOSL 2264-ICOSL 2264-CD155 665 (other)
chain: WPPPGTGDVVVQAPTQVSGFLGDSVTLPCYLQVPNMEVTHVSQLTWARHGESGSMAVFHQTQGPWYAESKRLEFVAARLGAELRNASLRVFGLRAEDEGNYTCQFVTFPQRSRSVDIWLRVLGGGGSGGGGTGGGGSDTQEKEVRAMVGSDVELSCACPEGSRFDLNDVYVYWQTSESKTVVTYHIPQHSSLEYVDSRYRNRALMSPAGMLRGDFSLRLFNVTPQDEQKFHCLVLSRSLGFQEVLSVEVTLHVAANFSVGGGGSGGGGSGGGGSDTQEKEVRAMVGSDVELSCACPEGSRFDLNDVYVYWQTSESKTVVTYHIPQHSSLEYVDSRYRNRALMSPAGMLRGDFSLRLFNVTPQDEQKFHCLVLSRSLGFQEVLSVEVTLHVAANFSVGSGGSGGGGSGGGGSWPPPGTGDVVVQAPTQVSGFLGDSVTLPCYLQVPNMEVTHVSQLTWARHGESGSMAVFHQTQGPWYAESKRLEFVAARLGAELRNASLRVFGLRAEDEGNYTCQFVTFPQRSRSVDIWLRVLGSGGGGSDYKDDDDKHHHHHH
In the case of B7, the EC50 is 3.39 nM in the test with human CD28 [4] and 2.3 nM with human TIGIT.

B8: CD155 665-ICOSL 2264-ICOSL 2264-CD155 665 (other)
chain: B7 chain
For the molecule B8, the “100 nM IFN-gamma (pg/mL), SEB assay” value in the test with TIGIT and in the test with CD28 was 2120 pg/mL throughout.

B9: PD-L1 303-CD155 665-CTLA-4 3037-Fc (Fc fusion)
chain: FTVTVPKDLYVVEYGSNMTIECKFPVEKQLDLAALIVYWEMEGKDIIQFVHGEEDQKAQHSSYRQRARLLKDQLSLGNAALQITDVKLQDAGVYRCMISYGGGADYKRITVKVNAGGGGSGGGGSGGGGSWPPPGTGDVVVQAPTQVSGFLGDSVTLPCYLQVPNMEVTHVSQLTWARHGESGSMAVFHQTQGPWYAESKRLEFVAARLGAELRNASLRVFGLRAEDEGNYTCQFVTFPQRSRSVDIWLRVLGGGGSGGGGSGGGGSKAMHVAQPAVVFASSHGIASFVCEYASPWKATEVRVTVLRQADSQVTEVCAATYMTGNELTFLDDSICTGTSSGNQVNLTIQGLRAMDTGLYICKVEQMYPPPYLLGIGNGTQIYVIDPEPCPDSDGSGGGGSEPKSSDKTHTCPPCPAPEAEGAPSVFLFPPKPKDTLMISRTPEVTCVVVDVSHEDPEVKFNWYVDGVEVHNAKTKPREEQYNSTYRVVSVLTVLHQDWLNGKEYKCKVSNKALPAPIEKTISKAKGQPREPQVYTLPPSRDELTKNQVSLTCLVKGFYPSDIAVEWESNGQPENNYKTTPPVLDSDGSFFLYSKLTVDKSRWQQGNVFSCSVMHEALHNHYTQKSLSLSPG
B9: the EC50 in the test with human CD28 [4] came out at 4.15 nM; in the test with human PD-1 [5], 1.3 nM; with CD80 it was 3.8 nM; with human TIGIT it was 1.6 nM.

B10: PD-L1 303-CTLA-4 3495-Fc (Fc fusion)
chain: FTVTVPKDLYVVEYGSNMTIECKFPVEKQLDLAALIVYWEMEGKDIIQFVHGEEDQKAQHSSYRQRARLLKDQLSLGNAALQITDVKLQDAGVYRCMISYGGGADYKRITVKVNAGSGGSGGGGSGGGGSKAMHVAQPAVVLASSRGIASFVCEYASPGKATEVRVTVLRQADSQVTEVCAATYMMGNELTFLDDSICTGTSSGNQVNLTIQGLRAMDTGLYICKVELMYPPPYYLGIGNGTQIYVIDPEPSPDSDQGGGGSGSGGGGSEPKSSDKTHTCPPCPAPEAEGAPSVFLFPPKPKDTLMISRTPEVTCVVVDVSHEDPEVKFNWYVDGVEVHNAKTKPREEQYNSTYRVVSVLTVLHQDWLNGKEYKCKVSNKALPAPIEKTISKAKGQPREPQVYTLPPSRDELTKNQVSLTCLVKGFYPSDIAVEWESNGQPENNYKTTPPVLDSDGSFFLYSKLTVDKSRWQQGNVFSCSVMHEALHNHYTQKSLSLSPG
Take B10: the “% CD25 Hi FoxP3 +” value with human CD80 and with PD-1 was 19.1 % at 100 nM each time.

The EC50 is the midpoint of the concentration-response curve. A lower EC50 goes with an effect from little substance.
